The values that follow come from US20100074892A1.

By Kd is commonly meant a measure of binding affinity in units of concentration.

The target in this assay is recombinant anthrax protective antigen (PA) (Bacillus anthracis) (UniProt P13423). Kind of assay: SPR (Biacore). For orientation: In SPR one partner is held on a chip, and binding of the other changes the refractive index at the surface.
Sequence of recombinant anthrax protective antigen (PA) (Bacillus anthracis) (P13423 30-764 limits assumed): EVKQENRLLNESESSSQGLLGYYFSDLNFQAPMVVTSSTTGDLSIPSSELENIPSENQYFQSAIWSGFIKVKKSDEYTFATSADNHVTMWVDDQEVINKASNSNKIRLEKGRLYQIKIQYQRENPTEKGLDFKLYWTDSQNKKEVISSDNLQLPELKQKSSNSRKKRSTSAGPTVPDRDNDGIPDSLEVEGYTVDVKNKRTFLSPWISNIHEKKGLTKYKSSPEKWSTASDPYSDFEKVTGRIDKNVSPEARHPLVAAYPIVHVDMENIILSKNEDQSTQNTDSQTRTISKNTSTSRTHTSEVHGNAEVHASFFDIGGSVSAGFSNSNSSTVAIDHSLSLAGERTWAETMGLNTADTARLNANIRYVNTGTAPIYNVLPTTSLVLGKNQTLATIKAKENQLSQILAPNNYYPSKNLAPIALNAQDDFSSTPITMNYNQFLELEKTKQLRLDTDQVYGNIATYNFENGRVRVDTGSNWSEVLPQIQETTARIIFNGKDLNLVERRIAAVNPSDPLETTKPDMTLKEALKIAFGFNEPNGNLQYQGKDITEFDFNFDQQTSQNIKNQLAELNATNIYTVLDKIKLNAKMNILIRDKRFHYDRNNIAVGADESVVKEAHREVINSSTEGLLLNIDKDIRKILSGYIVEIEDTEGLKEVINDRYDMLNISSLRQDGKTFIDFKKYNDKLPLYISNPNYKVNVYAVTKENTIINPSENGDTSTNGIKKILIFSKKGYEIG

As for mouse anti-PA monoclonal antibody 14B7, the Kd was 4 nM.
